In this experiment the target is T1, CXCR4 (UniProt P61073 1-352).
T1 construct: whole, on cells; also called X4
Nature of the experiment: western blot binding assay on CXCR4-transfected cells.

T1 sequence (P61073 whole entry): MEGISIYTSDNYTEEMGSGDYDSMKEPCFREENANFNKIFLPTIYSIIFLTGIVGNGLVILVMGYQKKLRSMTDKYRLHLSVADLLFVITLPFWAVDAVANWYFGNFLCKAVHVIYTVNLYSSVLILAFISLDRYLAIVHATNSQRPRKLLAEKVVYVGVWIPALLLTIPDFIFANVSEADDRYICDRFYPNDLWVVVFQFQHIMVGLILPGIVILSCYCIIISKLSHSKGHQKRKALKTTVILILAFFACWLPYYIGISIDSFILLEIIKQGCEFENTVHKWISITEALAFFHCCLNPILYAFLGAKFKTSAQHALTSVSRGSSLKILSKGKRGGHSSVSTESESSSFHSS

B1: HIV-2/VCP gp120 (other)
chain: KQFVTVFYGIPAWRNASIPLFCATKNRDTWGTIQCLPDNDDYQEIALNVTEAFDAWNNTVTEQAVEDVWNLFETSIKPCVKLTPLCVAMNCTRNMTTSTGTTDTQNITIINDTSPCVRADNCTGLKEEEMVDCQFNMTGLERDKRKQYTEAWYSKDVICDNNTSSRSKCYMNHCNTSVITESCDKHYWDAMRFRYCAPPGFALLRCNDTNYSGFAPNCSKVVAATCTRMMETQSSTWFGFNGTRAENRTYIYWHGKNNRTIISLNNFYNLTMHCKRPGNKTVLPIMSGFKFHSKPVINKKPRQAWCWFKGEWKEAMQEVKETLAKHPRYKGNRSRTENIKFKAPGRGSDPEAAYMWTNCRGEFLYCNMTWFLNWVDNRTGQKQRNYAPCHIRQIINTWHRVGKNVYLPPREGELTCNSTVTSIIANIDTGDQTDITFSAEVAELYRLELGDYKLVEITPIGFAPTSVKRYSSAHQRHTR
notes: also called gp120 Env of HIV-2/VCP
For B1, the binding result was “binds”.

Values taken from US20050064392A1 (TRUSTEES OF THE UNIVERSITY OF PENNYLVANIA, published 2005).
